Source: publication PMC7949152, “A resistant mutant of Plasmodium falciparum purine nucleoside phosphorylase uses wild-type neighbors to maintain parasite survival” (The Journal of Biological Chemistry, 2021)

Tested on: OC[C@H]1O[C@@H](n2cnc3c(O)ncnc32)[C@H](O)[C@@H]1O
Experiment: Michaelis-Menten kinetics, xanthine oxidase-coupled assay (Km)
Format: biochemical, Plasmodium falciparum
Settings: phosphate catalytic site

Substance: Plasmodium falciparum purine nucleoside phosphorylase (PfPNP), native subunits (natPNPfus) (Plasmodium falciparum 3D7)
- Km: 5.4 µM
